B1: Azoarcus group I ribozyme (parent)
chain: GUGCCUUGCGCCGGGAAACCACGCAAGGGAUGGUGUCAAAUUCGGCGAAACCUAAGCGCCCGCCCGGGCGUAUGGCAACGCCGAGCCAAGCUUCGGCGCCUGCGCCGAUGAAGGUGUAGAGACUAGACGGCACCCACCUAAGGCAAACGCUAUGGUGAAGGCAUAGUCCAGGGAGUGGCGAAAGUCACACAAACCGG

This data set covers variants of B1. Put plainly: reverse-splicing fitness (ratio to wild type); higher = more active; in vitro selection; Mg2+ level not given. The method, boiled down: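 An in vitro group I ribozyme library with randomized positions was T7-transcribed and gel-purified. In triplicate, 10 pmol RNA in EPPS pH 7.5 was reacted with 50 pmoles of a 30-nt RNA substrate for 1 h at 37 °C across several added MgCl2 levels (1–48 mM), then stopped with EDTA. Products were reverse transcribed from a substrate-complementary primer, PCR-amplified and sequenced (HiSeq 4000). Fitness is a variant's read proportion after selection over that before, normalised to wild type.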
As to C82A A120U C169U, the reverse-splicing fitness was 0.00613.
As for A111G A120C A145U C150U C169A, the figure is 0.013; as for C82U A111C A120G A145G C169G U176C, 0.028; as for C82A A111U A120G A145U C150A U176G, 0.00656.
For C82G A111C A120C C150A U176A, the reverse-splicing fitness was 0.0125.
Then C82G A111G A120U C150G C169U U176A, with 0.00421; and C82A A111U A145G C169A U176C, with 0.0292.
As for C82G A111G A145C C169A, the figure is 0.00733; as for C82G A145C C169A U176C, 0.00541.
As for C82A A111C A120U C150G C169U U176C, the figure is 0.00486.
For the variant A120U A145U U176G, the reverse-splicing fitness was 0.328.
Then A111G A120U C150A, with 0.112; and C82G A111U A120C A145G C150U C169A U176G, with 0.00812; and C82G A111U A120U A145U C169A U176G, with 0.00176.
In the case of C82G A111C A120C A145G C150G C169A U176C, the reverse-splicing fitness was 0.0127.
Then A111U C150G C169A U176C, with 0.0111; and C82G A111G A145G U176A, with 0.25; and C82U A111U A120G C150A U176A, with 0.0114.
Then A111U A145U C169G U176G, with 0.00562.
Then A120C A145U C150A C169A U176G, with 0.00377; and A120G A145U C150A C169G U176C, with 0.061.
For A111C A145G C150U C169A U176A, the reverse-splicing fitness was determined as 0.0141.
Regarding C82U A111U A120U A145G C150G C169A, the reverse-splicing fitness is 0.00819.
As to C82A A111U C150A C169U U176G, the reverse-splicing fitness was determined as 0.00835.
Take C82U A145U C150U C169G: the reverse-splicing fitness is 0.00951.
In the case of C82A A111U A120U C150U C169A U176G, the reverse-splicing fitness came to 0.00226.
As for C82A A111G A120C A145G C169G U176G, the figure is 0.0054; as for C82G A111U A120U A145U C150U U176G, 0.00302.
As for C82A A111G A145C C150G U176A, the figure is 0.00908; as for C82G A111C A145U C169G U176C, 0.0169; as for A111U A120U C150A C169G U176C, 0.00445.
Then A111C A120C A145U C169A U176A, with 0.0135; and A120U U176G, with 0.421.
For C82U A111G A120G C150G U176G, the reverse-splicing fitness is 0.0029.
As for C82A A111U A120C A145G C150G U176A, the figure is 0.00848.
Then C82G A120C A145U C169U U176G, with 0.00344.
For C82A A111U A120U C169G U176G, the reverse-splicing fitness is 0.00236.
Then C82U A111C A120U A145G C169U U176G, with 0.00206.
C82A A111G A120G A145G C150U: the reverse-splicing fitness amounted to 0.0145.
As for C82A A111U A120U A145G C150G C169A, the figure is 0.00923; as for A111G A145U C150G C169U U176C, 0.0148; as for C82G A111C A120C A145C C169G U176A, 0.0259.
Then C82A A111U A120G A145U C150A C169A U176A, with 0.0146.
On to C82G A111U A120C A145G C150G C169A, for which the reverse-splicing fitness was found to be 0.00998.
As to C82G A111U A120U C169A, the reverse-splicing fitness turned out to be 0.0043.
On to C82A A111C A120G C150U C169A U176G, for which the reverse-splicing fitness was 0.00621.
As for C82G A111C A120U A145U C150A C169G, the figure is 0.00295; as for C82G A111C A120C C150A C169A, 0.0108; as for A111C A120U U176A, 0.22.
Then A111U A120C A145U C150U C169U, with 0.112; and C82U A111C A120G C150U U176A, with 0.0106.
With C82U A111G A120U A145G C150U C169A, the reverse-splicing fitness stood at 0.0056.
As for C82G A120U A145C C150A C169A U176G, the figure is 0.00157; as for C82A A111U A120C A145U C150G C169A U176A, 0.0117.
Then C82G A111U A145G C150G U176C, with 0.0285; and C82G A111C A120U A145G C150U U176G, with 0.00399; and C82G A111G A145G C169A U176G, with 0.0057.
Then A111G A120C C150G U176A, with 0.0119; and A111U A145G C150G C169A U176A, with 0.0118; and C82U A111G A120G C169A, with 0.0106.
As to C82A A120U C150G C169G U176C, the reverse-splicing fitness came to 0.00251.
As for C82A A111C A145U C150A C169A U176C, the figure is 0.0143.
As for C82G A111C A120U A145G C150A U176A, the figure is 0.00773.
Consider A111U A120U A145C C150G C169A, for which the reverse-splicing fitness stood at 0.0033.
As for C82A A111U A120C A145C U176A, the figure is 0.0139; as for C82A A111U A120G A145C C150A C169G U176G, 0.00564.
Then C82A A120U A145U U176G, with 0.01; and C82U A111C A120G A145C C150A C169A U176G, with 0.00467.
Take C82U A111C A120C A145G C150U C169A U176C: the reverse-splicing fitness came to 0.014.
As for C82G A111G A120U A145G C150A C169U U176C, the figure is 0.00452.
C82U A111C A120G C169A U176C: the reverse-splicing fitness turned out to be 0.019.
As to A111G A120C A145G C150A C169G, the reverse-splicing fitness turned out to be 0.0108.
Then C82G A120G A145G C169G, with 0.0507; and C82A A111G A120C A145C C150U C169U U176G, with 0.00597; and C82U A145C C150A C169A U176G, with 0.0047.
Then C82U A120U A145G C169A U176C, with 0.00239.
Then C82G A120U A145G C150A C169G U176A, with 0.00555; and C82U C150U C169G, with 0.00973; and C82G A120U A145C C150U U176C, with 0.0197.
As for A120C A145G C150A C169G U176C, the reverse-splicing fitness came out at 0.0234.
As for A120C A145C C150A C169U U176A, the figure is 0.0342; as for A111C A120G A145G C150A, 0.0307; as for C82G A111G A120U A145U C150A C169G, 0.0027.

Source of the values: the RNAGym collection of RNA variant scans (doi:10.1093/molbev/msab373).
